{"source": "patent US20040038304A1", "about": "(CATALENT PHARMA SOLUTIONS, published 2004)", "binders": {"B1": {"name": "MN14 antibody (antibody, V domains shown)", "VH": "EVQLVESGGGVVQPGRSLRLSCSASGFDFTTYWMSWVRQAPGKGLEWIGEIHPDSSTINYAPSLKDRFTISRDNAKNTLFLQMDSLRPEDTGVYFCASLYFGFPWFAYWGQGTPVTVSS", "VL": "DIQLTQSPSSLSASVGDRVTITCKASQDVGTSVAWYQQKPGKAPKLLIYWTSTRHTGVPSRFSGSGSGTDFTFTISSLQPEDIATYYCQQYSLYRSFGQGTKVEIKR", "notes": "Purified MN14 used as the standard of the assays; also called Purified MN14"}}, "molecular_target": "T1, CEA antigen (UniProt P06731 35-685, limits assumed)", "T1 sequence (looked up)": "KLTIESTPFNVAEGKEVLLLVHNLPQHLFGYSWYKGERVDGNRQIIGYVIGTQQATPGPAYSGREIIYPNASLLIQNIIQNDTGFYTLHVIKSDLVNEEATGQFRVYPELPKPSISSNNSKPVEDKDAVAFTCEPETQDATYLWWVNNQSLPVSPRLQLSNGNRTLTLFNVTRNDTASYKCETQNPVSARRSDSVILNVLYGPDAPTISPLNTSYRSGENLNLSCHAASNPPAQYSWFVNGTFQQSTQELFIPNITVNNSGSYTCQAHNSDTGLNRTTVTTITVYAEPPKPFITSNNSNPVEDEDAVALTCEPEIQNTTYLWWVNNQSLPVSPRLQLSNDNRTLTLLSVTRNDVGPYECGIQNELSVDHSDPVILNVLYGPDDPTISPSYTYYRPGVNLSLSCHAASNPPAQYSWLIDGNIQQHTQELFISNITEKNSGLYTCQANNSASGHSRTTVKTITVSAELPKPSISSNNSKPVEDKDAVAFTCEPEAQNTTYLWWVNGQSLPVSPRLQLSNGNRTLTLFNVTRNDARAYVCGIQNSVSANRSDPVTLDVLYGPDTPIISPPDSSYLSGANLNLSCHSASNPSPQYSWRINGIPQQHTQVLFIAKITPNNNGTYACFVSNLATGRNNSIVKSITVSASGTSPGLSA", "experiment": "ELISA, plates coated with CEA antigen; MN14 as the standard", "procedure": "Single colonies were made and from an initial 50 clones, 38 viable clones were obtained. The supernatants of these clones were analyzed for human kappa light chain, human Fc (IgG) and CEA antigen binding. For the huLC and huFc assay, the plates were coated with anti-huFab, for the CEA binding assay, the plates were coated with CEA antigen. All values are in ng/ml. Purified MN14 was used as a standard."}
{"binder": "B1", "values": [{"measurement": "binding result", "value": "binds"}]}
